The supplement of paper PMC9170038

System: K4 kissing-loop RNA reporter
Assay: apparent KD of K4 kissing-loop reporter; higher = weaker reporter binding
Details: Eterna round: R107
Experimental: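 RNA-MaP round R107: designed RNA switches with theophylline, tryptophan, arginine or FMN aptamers are transcribed on-chip within common flanks. They are titrated with a labelled K4 kissing-loop RNA reporter in RNA-MaP buffer (100 mM Tris pH 7.5, 80 mM KCl, 4 mM MgCl2), without ligand or with the indicated ligand. Median apparent KD per design.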

[1] = input ligand: theophylline 20 uM
[2] = input ligand: tryptophan 2.4 mM
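Also: bound reporter read as fluorescence of individual clusters on recovered sequencing chips by microscopy, with normalized cluster intensities fitted with a binding model.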

UAAAUAAAAUCCUAGUGAUGUUAGGAUAUGUAGGAUAUCGGGAUACCGAGAAGGACAGAAGGAGGAGUGAUGUUCCUCAAUAAAU [FmnAX 30 #DoubleAptamer #DoubleK4 #OpenEnded]
apparent KD of K4 kissing-loop reporter (input ligand: FMN 200 uM): 72 nM
apparent KD of K4 kissing-loop reporter (input ligand: arginine 13.2 mM): 72.1 nM
apparent KD of K4 kissing-loop reporter (input ligand: none): 59.3 nM
apparent KD of K4 kissing-loop reporter [1]: 74.5 nM
apparent KD of K4 kissing-loop reporter [2]: 59.5 nM

UGUCAUUGGUCGGCCGCCACUAGGACCGGGUAUAGCCUAGUGAUGUUAGUAAGUACGGCCGCCACUAGGACCGGGACCGAUGACU [KL-SSTryp-B21 #DoubleAptamer]
apparent KD of K4 kissing-loop reporter (input ligand: FMN 200 uM): 742 nM
apparent KD of K4 kissing-loop reporter (input ligand: arginine 13.2 mM): 57 nM
apparent KD of K4 kissing-loop reporter (input ligand: none): 591 nM
apparent KD of K4 kissing-loop reporter [1]: 674 nM
apparent KD of K4 kissing-loop reporter [2]: 131 nM

GAUAUAUAUAGAGGAUAUAGCAGGUGAUACAAGAAAGUGAGUGAUGUUUAUGUAGAUGAUGAUAUGUUAGAAGGCUAUAUAUAUC [radioactive7-modED1598]
apparent KD of K4 kissing-loop reporter (input ligand: FMN 200 uM): 844 nM
apparent KD of K4 kissing-loop reporter (input ligand: arginine 13.2 mM): 736 nM
apparent KD of K4 kissing-loop reporter (input ligand: none): 766 nM
apparent KD of K4 kissing-loop reporter [1]: 723 nM
apparent KD of K4 kissing-loop reporter [2]: 706 nM

UCCUAGGCUCGAAAGAGCCUAGGUUAGACUCAGGAUAUCUGGAAACAGAGAAGGGAGCUACUAGUGAUGUUAGGAAUUCCCAUUU
apparent KD of K4 kissing-loop reporter (input ligand: FMN 200 uM): 102 nM
apparent KD of K4 kissing-loop reporter (input ligand: arginine 13.2 mM): 85.7 nM
apparent KD of K4 kissing-loop reporter (input ligand: none): 97.5 nM
apparent KD of K4 kissing-loop reporter [1]: 88.5 nM
apparent KD of K4 kissing-loop reporter [2]: 95.6 nM

UAAGACAUGAAAGGAUAUCCGAUAUGGAGCCUUUAGUGAUGUUAGGAGCUAGCCGUAGACAAGAUCGGAGAAGGUUCAACCCACA [theeternabot_sameState_KL_FMN_B_13]
apparent KD of K4 kissing-loop reporter (input ligand: FMN 200 uM): 787 nM
apparent KD of K4 kissing-loop reporter (input ligand: arginine 13.2 mM): 506 nM
apparent KD of K4 kissing-loop reporter (input ligand: none): 646 nM
apparent KD of K4 kissing-loop reporter [1]: 705 nM
apparent KD of K4 kissing-loop reporter [2]: 640 nM

GUGGUUUACGUAGGAUAUCGAUGAUGAGUAAAUGGAGUGAUGUUCCGAGAUUGAAUAUGAGAUGAGCGAGAAGGGCGGUUUAUGC [FMN B Same State; Euporia Solution 2]
apparent KD of K4 kissing-loop reporter (input ligand: FMN 200 uM): 32.8 nM
apparent KD of K4 kissing-loop reporter (input ligand: arginine 13.2 mM): 36.9 nM
apparent KD of K4 kissing-loop reporter (input ligand: none): 31.4 nM
apparent KD of K4 kissing-loop reporter [1]: 37.3 nM
apparent KD of K4 kissing-loop reporter [2]: 29.5 nM

CCCAAGGGCCUACCGGUAUUAUUAACGGAUACCAGAGGCGAAAGCCUCCCUUGGCAGCCGGGUGUAGUGAUGUUACUCCGGUAGU
apparent KD of K4 kissing-loop reporter (input ligand: FMN 200 uM): 83.4 nM
apparent KD of K4 kissing-loop reporter (input ligand: arginine 13.2 mM): 64.7 nM
apparent KD of K4 kissing-loop reporter (input ligand: none): 70.2 nM
apparent KD of K4 kissing-loop reporter [1]: 63.2 nM
apparent KD of K4 kissing-loop reporter [2]: 78.1 nM

CAUGAGUGAUGUUCGUGCGCUUGGUCGAAGCGAGGACCGGUACGGCCGCCACUCGCUAUGGCGGCAUCUACCAGUGAUGUUGGUG [Same State Tryptophan A GF 2]
apparent KD of K4 kissing-loop reporter (input ligand: FMN 200 uM): 241 nM
apparent KD of K4 kissing-loop reporter (input ligand: arginine 13.2 mM): 171 nM
apparent KD of K4 kissing-loop reporter (input ligand: none): 228 nM
apparent KD of K4 kissing-loop reporter [1]: 202 nM
apparent KD of K4 kissing-loop reporter [2]: 208 nM

UCCUGCAAUCGUCCACGAAAGUGGAUCGAUACCAGAGUCGAAAGACUCCCUUGGCAGCGAGUGAUGUUCGAAGCAGGUAAAUAAA
apparent KD of K4 kissing-loop reporter (input ligand: FMN 200 uM): 487 nM
apparent KD of K4 kissing-loop reporter (input ligand: arginine 13.2 mM): 387 nM
apparent KD of K4 kissing-loop reporter (input ligand: none): 466 nM
apparent KD of K4 kissing-loop reporter [1]: 548 nM
apparent KD of K4 kissing-loop reporter [2]: 391 nM

GGAUAGGAUAGAGGAUAUGGAAAACACAAAAGUGACUUGUUGUGUUUAUCCAUAGGGAGUGAUGUUCCAGAAGGCUGUCCUAUCG [MatMod 23 - Jieux - Exclusion - FMN B]
apparent KD of K4 kissing-loop reporter (input ligand: FMN 200 uM): 229 nM
apparent KD of K4 kissing-loop reporter (input ligand: arginine 13.2 mM): 169 nM
apparent KD of K4 kissing-loop reporter (input ligand: none): 169 nM
apparent KD of K4 kissing-loop reporter [1]: 164 nM
apparent KD of K4 kissing-loop reporter [2]: 136 nM

AAUGGCGAGUGAUGUUCGCCCACCAAUGAUACCAGUGCCAUCGGACACCCUUGGCAGCAUACGGGCAGUGAUGUUGCUCUUGGAA [Exclusion Theophylline A GF 26]
apparent KD of K4 kissing-loop reporter (input ligand: FMN 200 uM): 185 nM
apparent KD of K4 kissing-loop reporter (input ligand: arginine 13.2 mM): 181 nM
apparent KD of K4 kissing-loop reporter (input ligand: none): 193 nM
apparent KD of K4 kissing-loop reporter [1]: 200 nM
apparent KD of K4 kissing-loop reporter [2]: 177 nM

CGUUUCUCUGUCGAUACCAGCUUCAGUUGGCGGCCAGUGAUGUUGGUAUCGCCGAUGCCAAGCCCUUGGCAGCGACAUGAGACCC [Gezausin]
apparent KD of K4 kissing-loop reporter (input ligand: FMN 200 uM): 169 nM
apparent KD of K4 kissing-loop reporter (input ligand: arginine 13.2 mM): 163 nM
apparent KD of K4 kissing-loop reporter (input ligand: none): 193 nM
apparent KD of K4 kissing-loop reporter [1]: 128 nM
apparent KD of K4 kissing-loop reporter [2]: 166 nM

AGUGCUAUGACGGCCGCCACUGAUUACCAGUGAUGUUGGUAGUCCAUUUACGACUUCCUGAUAACCAGGACCGGGUCAUAGGUCG [Tryp B Ex t2]
apparent KD of K4 kissing-loop reporter (input ligand: FMN 200 uM): 702 nM
apparent KD of K4 kissing-loop reporter (input ligand: arginine 13.2 mM): 613 nM
apparent KD of K4 kissing-loop reporter (input ligand: none): 807 nM
apparent KD of K4 kissing-loop reporter [1]: 450 nM
apparent KD of K4 kissing-loop reporter [2]: 201 nM

AAUAAAAUCACGGCCGCCACUGAUAUCCAUAUUAGGAGUGAUGUUCCUAUGACUAUAUAAUUUAACAGGACCGGGUGAAUAUUUA [JR_SSTryptoB_Sub024]
apparent KD of K4 kissing-loop reporter (input ligand: FMN 200 uM): 104 nM
apparent KD of K4 kissing-loop reporter (input ligand: arginine 13.2 mM): 111 nM
apparent KD of K4 kissing-loop reporter (input ligand: none): 107 nM
apparent KD of K4 kissing-loop reporter [1]: 115 nM
apparent KD of K4 kissing-loop reporter [2]: 100 nM

AGCUCAGAGUGACUCGAUAAGAGUCACAAACGAGGACCGGUACGGCCGCCACUCGAAAUAAUGAGAGUGAUGUUCUCGCUGAGCA [#SwitchBubble 2 #StaticStem #K4Late]
apparent KD of K4 kissing-loop reporter (input ligand: FMN 200 uM): 221 nM
apparent KD of K4 kissing-loop reporter (input ligand: arginine 13.2 mM): 98.6 nM
apparent KD of K4 kissing-loop reporter (input ligand: none): 89 nM
apparent KD of K4 kissing-loop reporter [1]: 145 nM
apparent KD of K4 kissing-loop reporter [2]: 793 nM

AGUACAAUGGCGGCCGCCACUCAACGCAGAUCAAAGAUCUGCGAUCACUCAGUGAUGUUGAGUGAGAGGACCGGGCCUUUGUACA [Omei KL Tryp B SS B v6]
apparent KD of K4 kissing-loop reporter (input ligand: FMN 200 uM): 354 nM
apparent KD of K4 kissing-loop reporter (input ligand: arginine 13.2 mM): 272 nM
apparent KD of K4 kissing-loop reporter (input ligand: none): 307 nM
apparent KD of K4 kissing-loop reporter [1]: 311 nM
apparent KD of K4 kissing-loop reporter [2]: 135 nM
